Read-outs that look alike come from different tables or passages of the source.

The target of one test is T1, 4H2944-AA.
T1 chain: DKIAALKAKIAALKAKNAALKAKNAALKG
The test is described as follows: two-hybrid library CCmax.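 Also: natural log of median RNA to DNA barcode read ratio; higher means stronger binding.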

A further test deals with T2, 4H2949-AA.
T2 chain: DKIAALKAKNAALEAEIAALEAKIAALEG
The test is described as follows: two-hybrid library CCmax.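 Also: natural log of median RNA to DNA barcode read ratio; higher means stronger binding.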 Conditions: mean of both orientations.

The next test deals with T3, 4H3112-AA.
T3 chain: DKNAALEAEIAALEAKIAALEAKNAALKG
The test is described as follows: two-hybrid library CCmax.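 Also: natural log of median RNA to DNA barcode read ratio; higher means stronger binding.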 Conditions: mean of both orientations.

The next test addresses T4, 4H317-AA.
T4 chain: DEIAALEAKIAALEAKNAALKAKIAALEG
Put plainly: two-hybrid library CCmax.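 Also: natural log of median RNA to DNA barcode read ratio; higher means stronger binding.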 Conditions: mean of both orientations.

A further test has as its target T5, 4H3343-AA.
T5 chain: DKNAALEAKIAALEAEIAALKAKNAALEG
The test is described as follows: two-hybrid library CCmax.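 Also: natural log of median RNA to DNA barcode read ratio; higher means stronger binding.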 The conditions noted are these: mean of both orientations.

A further test addresses T6, 4H335-AA.
T6 chain: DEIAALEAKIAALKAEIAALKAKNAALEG
Put plainly: two-hybrid library CCmax.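 Also: natural log of median RNA to DNA barcode read ratio; higher means stronger binding.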 Conditions: mean of both orientations.

The next test deals with T7, 4H342-AA.
T7 chain: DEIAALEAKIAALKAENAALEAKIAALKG
The test is described as follows: two-hybrid library CCmax. The conditions noted are these: mean of both orientations.

Another test addresses T8, 4H3427-AA.
T8 chain: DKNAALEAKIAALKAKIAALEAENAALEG
The test is described as follows: two-hybrid library CCmax. Conditions: mean of both orientations.

The target in the next test is T9, 4H3606-AA.
T9 chain: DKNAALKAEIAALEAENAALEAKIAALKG
Put plainly: two-hybrid library CCmax. The conditions noted are these: mean of both orientations.

The target of a further test is T10, 4H3627-AA.
T10 chain: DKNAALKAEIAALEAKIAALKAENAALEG
The test is described as follows: two-hybrid library CCmax.

The target of a further test is T11, 4H3655-AA.
T11 chain: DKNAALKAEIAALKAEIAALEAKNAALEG
Put plainly: two-hybrid library CCmax. Conditions: mean of both orientations.

A further test deals with T12, 4H3718-AA.
T12 chain: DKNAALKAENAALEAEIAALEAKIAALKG
The test is described as follows: two-hybrid library CCmax.

In a further test the target is T13, 4H3844-AA.
T13 chain: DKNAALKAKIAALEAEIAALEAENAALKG
Put plainly: two-hybrid library CCmax. Conditions: mean of both orientations.

A further test addresses T14, 4H3921-AA.
T14 chain: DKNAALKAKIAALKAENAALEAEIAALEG
Put plainly: two-hybrid library CCmax. The conditions noted are these: mean of both orientations.

Another test concerns the target T15, 4H429-AA.
T15 chain: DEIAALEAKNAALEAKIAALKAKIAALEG
Put plainly: two-hybrid library CCmax. The conditions noted are these: mean of both orientations.

In another test the target is T16, 4H454-AA.
T16 chain: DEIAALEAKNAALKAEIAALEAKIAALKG
Put plainly: two-hybrid library CCmax. The conditions noted are these: mean of both orientations.

A further test addresses T17, 4H48-AA.
T17 chain: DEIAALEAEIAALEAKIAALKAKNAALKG
The test is described as follows: two-hybrid library CCmax.

A further test has as its target T18, 4H566-AA.
T18 chain: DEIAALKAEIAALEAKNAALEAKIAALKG
Put plainly: two-hybrid library CCmax. The conditions noted are these: mean of both orientations.

The target of another test is T19, 4H605-AA.
T19 chain: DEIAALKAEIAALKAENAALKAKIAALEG
The test is described as follows: two-hybrid library CCmax. The conditions noted are these: mean of both orientations.

A further test has as its target T20, 4H678-AA.
T20 chain: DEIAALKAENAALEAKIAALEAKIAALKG
Put plainly: two-hybrid library CCmax. Conditions: mean of both orientations.

The target in a further test is T21, 4H717-AA.
T21 chain: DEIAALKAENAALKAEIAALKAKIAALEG
Put plainly: two-hybrid library CCmax. Conditions: mean of both orientations.

In the next test the target is T22, 4H780-AA.
T22 chain: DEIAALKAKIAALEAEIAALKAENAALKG
The test is described as follows: two-hybrid library CCmax. Conditions: mean of both orientations.

The target in the next test is T23, 4H794-AA.
T23 chain: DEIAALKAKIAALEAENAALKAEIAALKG
Put plainly: two-hybrid library CCmax. Conditions: mean of both orientations.

In a further test the target is T24, 4H881-AA.
T24 chain: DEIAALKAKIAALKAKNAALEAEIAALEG
The test is described as follows: two-hybrid library CCmax. The conditions noted are these: mean of both orientations.

Another test deals with T25, 4H906-AA.
T25 chain: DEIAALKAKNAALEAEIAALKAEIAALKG
Put plainly: two-hybrid library CCmax. Conditions: mean of both orientations.

For the next test, the target named is T26, 4H993-AA.
T26 chain: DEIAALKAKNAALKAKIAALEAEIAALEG
The test is described as follows: two-hybrid library CCmax. Conditions: mean of both orientations.

The target of the next test is T27, Q3-AA.
T27 chain: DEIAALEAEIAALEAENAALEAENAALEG
Put plainly: two-hybrid library CCmax. Conditions: mean of both orientations.

The target of the next test is T28, Q7-AA.
T28 chain: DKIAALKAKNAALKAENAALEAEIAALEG
Put plainly: two-hybrid library CCmax. Conditions: mean of both orientations.

The next test concerns the target T29, Q8-AA.
T29 chain: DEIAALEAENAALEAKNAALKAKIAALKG
The test is described as follows: two-hybrid library CCmax. The conditions noted are these: mean of both orientations.

In another test the target is T30, 4H384-AA.
T30 chain: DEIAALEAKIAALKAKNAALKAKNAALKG
The test is described as follows: two-hybrid library CCmax. Conditions: mean of both orientations.

A further test has as its target T31, 4H3865-AA.
T31 chain: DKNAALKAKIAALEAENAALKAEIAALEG
The test is described as follows: two-hybrid library CCmax. Conditions: mean of both orientations.

The target of a further test is T32, 4H697-AA.
T32 chain: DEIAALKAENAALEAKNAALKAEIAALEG
The test is described as follows: two-hybrid library CCmax. The conditions noted are these: mean of both orientations.

In the next test the target is T33, 4H982-AA.
T33 chain: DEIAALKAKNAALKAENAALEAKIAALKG
Put plainly: two-hybrid library CCmax. Conditions: mean of both orientations.

A further test addresses T34, 4H2233-bH.
T34 chain: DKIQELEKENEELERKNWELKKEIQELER
Put plainly: two-hybrid library CCNG1.

A further test deals with T35, 4H2253-bH.
T35 chain: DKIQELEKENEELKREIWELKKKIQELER
Put plainly: two-hybrid library CCNG1.

The target of another test is T36, 4H235-bH.
T36 chain: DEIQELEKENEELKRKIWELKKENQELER
The test is described as follows: two-hybrid library CCNG1.

The next test concerns the target T37, 4H2444-bH.
T37 chain: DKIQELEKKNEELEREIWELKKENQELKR
The test is described as follows: two-hybrid library CCNG1.

A further test addresses T38, 4H2518-bH.
T38 chain: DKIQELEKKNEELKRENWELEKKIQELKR
Put plainly: two-hybrid library CCNG1.

The next test deals with T39, 4H2585-bH.
T39 chain: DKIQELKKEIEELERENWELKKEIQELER
Put plainly: two-hybrid library CCNG1.

Another test deals with T40, 4H264-bH.
T40 chain: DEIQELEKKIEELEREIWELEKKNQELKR
The test is described as follows: two-hybrid library CCNG1.

The target of a further test is T41, 4H2760-bH.
T41 chain: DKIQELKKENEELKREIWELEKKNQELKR
The test is described as follows: two-hybrid library CCNG1.

In the next test the target is T42, 4H2859-bH.
T42 chain: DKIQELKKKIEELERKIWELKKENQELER
Put plainly: two-hybrid library CCNG1.

Another test addresses T43, 4H2931-bH.
T43 chain: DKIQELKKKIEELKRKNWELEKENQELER
Put plainly: two-hybrid library CCNG1.

The target in the next test is T44, 4H3041-bH.
T44 chain: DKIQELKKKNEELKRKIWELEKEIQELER
The test is described as follows: two-hybrid library CCNG1.

The target in a further test is T45, 4H319-bH.
T45 chain: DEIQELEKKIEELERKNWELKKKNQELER
The test is described as follows: two-hybrid library CCNG1.

A further test concerns the target T46, 4H3297-bH.
T46 chain: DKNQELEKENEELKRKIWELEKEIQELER
Put plainly: two-hybrid library CCNG1.

The target in the next test is T47, 4H3364-bH.
T47 chain: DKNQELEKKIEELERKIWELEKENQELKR
Put plainly: two-hybrid library CCNG1.

A further test deals with T48, 4H3381-bH.
T48 chain: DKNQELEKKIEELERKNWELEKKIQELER
Put plainly: two-hybrid library CCNG1.

The next test has as its target T49, 4H349-bH.
T49 chain: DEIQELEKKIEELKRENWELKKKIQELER
The test is described as follows: two-hybrid library CCNG1.

The target in the next test is T50, 4H56-bH.
T50 chain: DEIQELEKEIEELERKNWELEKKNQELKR
Put plainly: two-hybrid library CCNG1.

Another test concerns the target T51, 4H730-bH.
T51 chain: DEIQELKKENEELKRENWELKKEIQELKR
Put plainly: two-hybrid library CCNG1.

A further test deals with T52, 4H796-bH.
T52 chain: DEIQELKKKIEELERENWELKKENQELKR
The test is described as follows: two-hybrid library CCNG1.

Another test concerns the target T53, 4H932-bH.
T53 chain: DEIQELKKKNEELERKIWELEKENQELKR
The test is described as follows: two-hybrid library CCNG1.

Another test addresses T54, 4H949-bH.
T54 chain: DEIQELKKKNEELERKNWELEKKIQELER
The test is described as follows: two-hybrid library CCNG1.

The target in a further test is T55, O5.
T55 chain: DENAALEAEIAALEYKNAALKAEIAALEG
Put plainly: two-hybrid library CCNG1.

As for DKIAALKAKIAALKAKNAALKAKNAALKG [4H2944-AA], the interaction score in the test with 4H2944-AA was -1.62; in the test with 4H2949-AA, -1.55; with 4H3112-AA it was -0.15; with 4H317-AA, -1.04; in the test with 4H3343-AA, -1.17; with 4H335-AA it was -1.7. The interaction score with 4H342-AA is 1.12; with 4H3427-AA, -0.0703; with 4H3606-AA it was -0.0316; in the test with 4H3627-AA (mean of both orientations), -0.579; in the test with 4H3655-AA, -0.297; in the test with 4H3718-AA (mean of both orientations) it was -0.87. Also, the interaction score in the test with 4H3844-AA is 0.407; with 4H3921-AA, -0.731; in the test with 4H429-AA it was -1.71; with 4H454-AA it was -1.8; in the test with 4H48-AA it was -1.33; with 4H566-AA, 0.106. The interaction score is -1.34 with 4H605-AA; -1.67 with 4H678-AA; -1.69 with 4H717-AA; -1.43 in the test with 4H780-AA; -1.89 in the test with 4H794-AA; -0.992 with 4H881-AA. Besides, the interaction score is -1.83 in the test with 4H906-AA; -2.01 in the test with 4H993-AA; 1.67 with Q3-AA; -1.77 with Q7-AA; -1.55 with Q8-AA.
In the case of DKNAALKAEIAALEAKIAALKAENAALEG [4H3627-AA], the interaction score with 4H3627-AA is 0.53; in the test with 4H3655-AA, -0.0982; in the test with 4H3718-AA (mean of both orientations), -0.468; with 4H3844-AA, 1.03; with 4H3921-AA it was -1.63; with 4H429-AA it was -1.09. For the same molecule, the interaction score with 4H454-AA is 0.554; with 4H48-AA (mean of both orientations), -0.478; in the test with 4H566-AA it was -0.771; in the test with 4H605-AA, -1.4; with 4H678-AA it was -1.31; with 4H717-AA it was -1.79. The interaction score with 4H780-AA is -1; in the test with 4H794-AA, -1.93; with 4H881-AA, -1.04; with 4H906-AA, -1.34; with 4H993-AA, -1.08; with Q3-AA, -1.24. Also, the interaction score was -1.97 with Q7-AA and -0.702 with Q8-AA.
As for DKNAALKAENAALEAEIAALEAKIAALKG [4H3718-AA], the interaction score in the test with 4H3718-AA was -0.586; in the test with 4H384-AA it was 0.145; in the test with 4H3865-AA it was -1.49; with 4H697-AA it was -0.465; with 4H982-AA, -1.15; with Q3-AA, -1.46. The interaction score with Q7-AA is -0.973; with Q8-AA it was 1.05.
Take DKIQELEKENEELERKNWELKKEIQELER [4H2233-bH]: the interaction score was 0.18 in the test with 4H2233-bH; -0.0513 with 4H2253-bH; -0.93 with 4H235-bH; -0.446 with 4H2444-bH; 1.4 with 4H2518-bH; -0.529 with 4H2585-bH. Also, the interaction score with 4H264-bH was -0.0896; with 4H2760-bH, -0.804; in the test with 4H2859-bH, -0.442; with 4H2931-bH, -0.862; in the test with 4H3041-bH it was -0.641; in the test with 4H319-bH it was -0.931. The interaction score in the test with 4H3297-bH is -0.069; with 4H3364-bH, -0.899; with 4H3381-bH, -0.723; in the test with 4H349-bH it was 0.0715; with 4H56-bH, -1.28; with 4H730-bH it was -0.961. The interaction score with 4H796-bH was -0.815; with 4H932-bH it was -1.01; in the test with 4H949-bH, -0.96; in the test with O5, -1.37.

Values taken from PMC10397247.
